The source of these data is article PMC2997466, “The unstructured C-terminal extension of UvrD interacts with UvrB, but is dispensable for nucleotide excision repair” (DNA Repair, 2009).

The test system of data set [1] is UvrD1-647 (Escherichia coli MG1655). The data set can be described thus: DNA-dependent ATPase, poly(dT) titration (KDNA, half-maximal activity). Particulars: NER complex: 40 mM HEPES pH 8.0, 100 mM KCl, 8 mM MgCl2, 5 mM DTT, 100 ug/ml BSA, 11% glycerol, 2 mM ATP with regeneration system, 37 C; ATPase assay ….
Data set [2] deals with UvrD (helicase II) (Escherichia coli MG1655). The data set is described as above. The settings on record: NER complex: 40 mM HEPES pH 8.0, 100 mM KCl, 8 mM MgCl2, 5 mM DTT, 100 ug/ml BSA, 11% glycerol, 2 mM ATP with regeneration system, 37 C; ATPase assay ….
Data set [3] has as its target T1, λ cI-UvrB 35–252 (1a2) fusion protein (E. coli, UniProt P0A8F8 35-252).
T1 construct: UvrB, E. coli, residues 35-252 (domains 1a and 2); also called UvrB fragment containing domains 1a and 2; source: bacterial two-hybrid fusion, pRA03 derivative, in E. coli KS1; not shown: λ cI residues 1–236, N-terminal, kept
T1 sequence (looked up): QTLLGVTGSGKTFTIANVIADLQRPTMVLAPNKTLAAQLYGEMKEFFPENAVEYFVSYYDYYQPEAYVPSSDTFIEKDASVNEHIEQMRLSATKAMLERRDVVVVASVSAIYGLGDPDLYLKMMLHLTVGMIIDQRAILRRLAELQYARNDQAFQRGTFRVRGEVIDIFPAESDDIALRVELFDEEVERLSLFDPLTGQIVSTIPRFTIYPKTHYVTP
Description: two-hybrid; bacterial 2-hybrid (Dove and Hochschild) in E. coli KS1: UvrD fragments fused to RNA polymerase α 1–248, UvrB fragments fused to λ cI 1–236; chromosomal lacZ reporter, β-galactosidase in Miller Units; LB with 1 mM IPTG, 30 °C, mid-log phase. Particulars: partners not purified.

Data set [4] addresses T2, λ cI-UvrB 527–673 (4) fusion protein (E. coli, UniProt P0A8F8 527-673).
T2 construct: UvrB, E. coli, residues 527-673 (domain 4); also called UvrB domain 4; source: bacterial two-hybrid fusion, pRA03 derivative, in E. coli KS1; not shown: λ cI residues 1–236, N-terminal, kept
T2 sequence (looked up): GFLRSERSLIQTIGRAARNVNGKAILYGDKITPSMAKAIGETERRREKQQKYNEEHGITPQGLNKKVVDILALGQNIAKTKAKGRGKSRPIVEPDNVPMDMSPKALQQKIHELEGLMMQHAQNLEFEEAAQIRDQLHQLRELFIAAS
The description is as above. Particulars: partners not purified.

The target in data set [5] is T3, λ cI-UvrB 251–547 (1b3) fusion protein (E. coli, UniProt P0A8F8 251-547).
T3 construct: UvrB, E. coli, residues 251-547 (domains 1b and 3); also called UvrB domains 1b and 3; source: bacterial two-hybrid fusion, pRA03 derivative, in E. coli KS1; not shown: λ cI residues 1–236, N-terminal, kept
T3 sequence (looked up): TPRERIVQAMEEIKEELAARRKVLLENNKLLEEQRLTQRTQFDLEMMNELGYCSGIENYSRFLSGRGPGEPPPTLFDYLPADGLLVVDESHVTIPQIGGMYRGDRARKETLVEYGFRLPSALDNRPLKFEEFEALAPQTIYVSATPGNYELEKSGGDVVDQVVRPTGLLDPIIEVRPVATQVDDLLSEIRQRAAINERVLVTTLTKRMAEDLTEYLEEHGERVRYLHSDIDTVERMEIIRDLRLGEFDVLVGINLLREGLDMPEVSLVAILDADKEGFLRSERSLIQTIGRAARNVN
The data set is described as above. Particulars: partners not purified.

In data set [6] the target is T4, UvrD (helicase II), native untagged (E. coli, UniProt P03018 1-720).
T4 construct: UvrD (helicase II), E. coli MG1655, whole coding region from start to stop codon (720 residues); also called full-length UvrD; wild-type UvrD; source: E. coli BL21(DE3), pETDUET-UvrD, purified (heparin, MonoQ)
T4 sequence (looked up): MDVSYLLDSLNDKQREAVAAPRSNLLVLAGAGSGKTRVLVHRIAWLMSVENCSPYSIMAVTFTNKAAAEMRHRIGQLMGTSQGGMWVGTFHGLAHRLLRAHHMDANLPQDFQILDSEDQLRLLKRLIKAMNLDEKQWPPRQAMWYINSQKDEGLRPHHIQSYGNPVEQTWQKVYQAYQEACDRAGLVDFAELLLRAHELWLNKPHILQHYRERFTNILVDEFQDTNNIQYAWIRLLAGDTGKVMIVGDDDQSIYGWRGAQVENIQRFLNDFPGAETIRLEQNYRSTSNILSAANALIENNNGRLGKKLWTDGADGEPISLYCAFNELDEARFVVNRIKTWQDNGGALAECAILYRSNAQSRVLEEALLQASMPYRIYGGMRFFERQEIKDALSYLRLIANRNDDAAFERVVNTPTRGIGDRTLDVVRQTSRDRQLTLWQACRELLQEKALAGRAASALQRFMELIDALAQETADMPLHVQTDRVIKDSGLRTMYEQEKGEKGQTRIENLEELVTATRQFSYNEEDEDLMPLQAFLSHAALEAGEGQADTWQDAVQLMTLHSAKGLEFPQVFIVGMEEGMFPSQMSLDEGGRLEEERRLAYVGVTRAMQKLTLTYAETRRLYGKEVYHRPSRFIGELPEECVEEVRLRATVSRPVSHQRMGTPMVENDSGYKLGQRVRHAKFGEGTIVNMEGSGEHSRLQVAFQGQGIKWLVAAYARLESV
The data set can be described thus: SPR; BIAcore 2000; UvrB or UvrB_(1–414) immobilised on CM5 chip by amine coupling (~8000 RU); UvrD or UvrD_(1–647) injected at 0.05-4.0 μM, 20 μl/min, 25 °C; 10 mM HEPES pH 7.4, 150 mM NaCl, 3 mM EDTA, 0.005% Tween20. Particulars: both partners purified. (In SPR one partner is held on a chip, and binding of the other changes the refractive index at the surface.)

In data set [7] the target is T5, ^bioUvrD, full-length UvrD biotinylated at the N-terminus (E. coli, UniProt P03018 1-720, biotin on the lysine of the N-terminal tag … (biotinylated in vivo by BirA)).
T5 construct: UvrD (helicase II), E. coli MG1655, whole coding region (720 residues); The tag was inserted at the NcoI site that overlaps the start codon of uvrD; also called biotinylated UvrD; source: E. coli BL21(DE3) with pBirACm and pET28a-^bioUvrD, purified (ammonium sulphate, Softlink Avidin, HiTrap heparin)
T5 sequence (looked up): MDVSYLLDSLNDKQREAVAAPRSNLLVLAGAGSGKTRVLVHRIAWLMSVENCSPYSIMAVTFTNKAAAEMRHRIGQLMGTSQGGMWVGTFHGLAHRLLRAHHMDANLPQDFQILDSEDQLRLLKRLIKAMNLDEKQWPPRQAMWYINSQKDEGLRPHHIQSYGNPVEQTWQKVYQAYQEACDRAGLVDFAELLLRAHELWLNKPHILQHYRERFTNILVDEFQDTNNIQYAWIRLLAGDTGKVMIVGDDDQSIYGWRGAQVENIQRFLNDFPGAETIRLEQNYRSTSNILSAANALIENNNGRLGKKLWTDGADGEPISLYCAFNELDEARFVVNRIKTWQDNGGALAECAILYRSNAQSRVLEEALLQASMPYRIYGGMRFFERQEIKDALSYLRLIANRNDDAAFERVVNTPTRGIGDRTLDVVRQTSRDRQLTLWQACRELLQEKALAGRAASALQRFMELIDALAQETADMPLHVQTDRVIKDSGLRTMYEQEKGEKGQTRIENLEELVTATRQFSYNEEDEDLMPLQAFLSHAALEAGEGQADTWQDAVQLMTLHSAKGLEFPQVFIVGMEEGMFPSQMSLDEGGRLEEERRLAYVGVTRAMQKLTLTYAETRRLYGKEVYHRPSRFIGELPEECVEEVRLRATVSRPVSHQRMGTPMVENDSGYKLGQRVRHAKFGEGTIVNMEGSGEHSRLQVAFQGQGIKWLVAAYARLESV
The data set can be described thus: SPR; BIAcore 2000; ^bioUvrD or ^bioUvrD_(1–647) immobilised on streptavidin (SA) chip (~7000 RU); UvrB or UvrB_(1–414) injected at 0.05-4.0 μM, 20 μl/min, 25 °C; 10 mM HEPES pH 7.4, 150 mM NaCl, 3 mM EDTA, 0.005% Tween20. Particulars: both partners purified.

For the molecule poly(dT), the K half (uM nucleotides) in data set [1] was 2.5; in data set [2], 0.54.

B1: α-UvrD 1–280 (1a1b1a) fusion protein (domain or fragment, E. coli, UniProt P03018 1-280, looked up)
chain: MDVSYLLDSLNDKQREAVAAPRSNLLVLAGAGSGKTRVLVHRIAWLMSVENCSPYSIMAVTFTNKAAAEMRHRIGQLMGTSQGGMWVGTFHGLAHRLLRAHHMDANLPQDFQILDSEDQLRLLKRLIKAMNLDEKQWPPRQAMWYINSQKDEGLRPHHIQSYGNPVEQTWQKVYQAYQEACDRAGLVDFAELLLRAHELWLNKPHILQHYRERFTNILVDEFQDTNNIQYAWIRLLAGDTGKVMIVGDDDQSIYGWRGAQVENIQRFLNDFPGAETIRLE
notes: UvrD (helicase II), E. coli, residues 1-280 (domains 1a and 1b); also called N-terminal fragment of UvrD; UvrD domains 1a and 1b; source: bacterial two-hybrid fusion, pRA02 derivative, in E. coli KS1; not shown: RNA polymerase α subunit residues 1–248, N-terminal, kept
Consider B1, for which the β-galactosidase activity in data set [3] was 111 Miller Units; in data set [4], 86 Miller Units; in data set [5], 336 Miller Units.

B2: α-UvrD 645–720 (C-extension) fusion protein (domain or fragment, E. coli, UniProt P03018 645-720, looked up)
chain: RLRATVSRPVSHQRMGTPMVENDSGYKLGQRVRHAKFGEGTIVNMEGSGEHSRLQVAFQGQGIKWLVAAYARLESV
notes: UvrD (helicase II), E. coli, residues 645-720 (unstructured C-terminal extension); also called C-terminal extension of UvrD (residues 645–720); source: bacterial two-hybrid fusion, pRA02 derivative, in E. coli KS1; not shown: RNA polymerase α subunit residues 1–248, N-terminal, kept
In turn, B2 had a β-galactosidase activity in data set [3] of 140 Miller Units.

B3: UvrB_(1–414), N-terminally His-tagged (domain or fragment, E. coli, UniProt P0A8F8 1-414, looked up)
chain: MSKPFKLNSAFKPSGDQPEAIRRLEEGLEDGLAHQTLLGVTGSGKTFTIANVIADLQRPTMVLAPNKTLAAQLYGEMKEFFPENAVEYFVSYYDYYQPEAYVPSSDTFIEKDASVNEHIEQMRLSATKAMLERRDVVVVASVSAIYGLGDPDLYLKMMLHLTVGMIIDQRAILRRLAELQYARNDQAFQRGTFRVRGEVIDIFPAESDDIALRVELFDEEVERLSLFDPLTGQIVSTIPRFTIYPKTHYVTPRERIVQAMEEIKEELAARRKVLLENNKLLEEQRLTQRTQFDLEMMNELGYCSGIENYSRFLSGRGPGEPPPTLFDYLPADGLLVVDESHVTIPQIGGMYRGDRARKETLVEYGFRLPSALDNRPLKFEEFEALAPQTIYVSATPGNYELEKSGGDVVDQVVR
notes: also called truncated derivative of UvrB comprising domains 1a, 2 and 1b
Turning to B3, the binding result in data set [6] and in data set [7] was “binds” each time.

B4: UvrB, N-terminally hexa-His-tagged (natural protein, E. coli, UniProt P0A8F8 1-673, looked up)
chain: MSKPFKLNSAFKPSGDQPEAIRRLEEGLEDGLAHQTLLGVTGSGKTFTIANVIADLQRPTMVLAPNKTLAAQLYGEMKEFFPENAVEYFVSYYDYYQPEAYVPSSDTFIEKDASVNEHIEQMRLSATKAMLERRDVVVVASVSAIYGLGDPDLYLKMMLHLTVGMIIDQRAILRRLAELQYARNDQAFQRGTFRVRGEVIDIFPAESDDIALRVELFDEEVERLSLFDPLTGQIVSTIPRFTIYPKTHYVTPRERIVQAMEEIKEELAARRKVLLENNKLLEEQRLTQRTQFDLEMMNELGYCSGIENYSRFLSGRGPGEPPPTLFDYLPADGLLVVDESHVTIPQIGGMYRGDRARKETLVEYGFRLPSALDNRPLKFEEFEALAPQTIYVSATPGNYELEKSGGDVVDQVVRPTGLLDPIIEVRPVATQVDDLLSEIRQRAAINERVLVTTLTKRMAEDLTEYLEEHGERVRYLHSDIDTVERMEIIRDLRLGEFDVLVGINLLREGLDMPEVSLVAILDADKEGFLRSERSLIQTIGRAARNVNGKAILYGDKITPSMAKAIGETERRREKQQKYNEEHGITPQGLNKKVVDILALGQNIAKTKAKGRGKSRPIVEPDNVPMDMSPKALQQKIHELEGLMMQHAQNLEFEEAAQIRDQLHQLRELFIAAS
notes: UvrB, E. coli MG1655, whole coding region from start to stop codon (673 residues); also called full-length UvrB; source: E. coli XL1-Blue, pQE30UvrB, purified (Ni HiTrap chelating column)
In the case of B4, the binding result in data set [6] and in data set [7] was “binds” in each case.
